Laboratory results taken from the supplement of paper PMC9170038.

System: MS2 coat protein
Assay: apparent KD of MS2 coat protein; designed switch direction (-1 OFF switch, 1 ON switch): 1; higher = weaker reporter binding
How it was run: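 An oligonucleotide input, 200 uM small-molecule ligand, or no input was present during titration of SNAP-549-labelled MS2 coat protein, which was doubled from 0.7 or 1.5 nM to 3 µM. Designed RNA switches had been transcribed on Illumina chips by stalled E. coli RNA polymerase. Apparent KD per design is the median over clusters of curves fitted to normalised cluster fluorescence.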

[1] = input ligand: microRNA oligo, concentration not stated
[2] = Eterna round: R95, input ligand: FMN 200 uM
[3] = Eterna round: R95, input ligand: microRNA oligo, concentration not stated
[4] = Eterna round: R95, input ligand: none

| Sequence | apparent KD of MS2 coat protein (input ligand: FMN 200 uM) [nM] | apparent KD of MS2 coat protein [1] [nM] | apparent KD of MS2 coat protein (input ligand: none) [nM] | apparent KD of MS2 coat protein [2] [nM] | apparent KD of MS2 coat protein [3] [nM] | apparent KD of MS2 coat protein [4] [nM] |
| --- | --- | --- | --- | --- | --- | --- |
| UUACUCAUGUAAGGAUAUGCAGCCGUUUCGGCUGCAGAAGGUACUAUAAUACAUGAGGAUCACCCAUGUCUUUUUAAUUUUGAC [JL SSNG1 1.27] (Eterna round: R96, puzzle: Same State NG 1) | 79.3 | 34.5 | 39.2 |  |  |  |
| UUAUUAAUUACAUGAGGAUCACCCAUGUUUUUAUGUCAGAGACAGGAUAUAGAAGUCUCGUUUUACUAGAAGGGUCAUUAUAAG [JR_SSNG3_Sub015] (Eterna round: R96, puzzle: Same State NG 3) | 18.6 | 16.4 | 19.2 |  |  |  |
| UUAUUAUUUACAUGAGGAUCACCCAUGUUUUUAUGUCUUAGACAGGAUAUAGUAGUCUCGUUUUACUAGAAGGGUCUUUUUAUU [JR_SSNG3_Sub018] (Eterna round: R96, puzzle: Same State NG 3) | 21.3 | 31.9 | 39.4 |  |  |  |
| UUCCACGUUGCACAGGAUAUCCAAGCCGUGACAUGAGGAUCACCCAUGUCUAGUAGGCGACUAAGGGAGAAGGGUGUUGUCGUGC [Biuser] (puzzle: Same State 2) |  |  |  | 10.8 | 10.1 | 10.1 |
| UUCUCAUUUACAUGAGGAUCACCCAUGUUUUUUUGUAGGAAAUAGGAUAUAGGUCUCUCGUUUUACUAGAAGGAUUUCCUUAUU [JR_SSNG3_Sub090] (Eterna round: R96, puzzle: Same State NG 3) | 51.5 | 38 | 48.5 |  |  |  |
| UUCUCUCUGGUAGGAUAUGUAGGAUAUGUACAUGAGGAUCACCCAUGUCAGUUAAUGACAGAAGGAUAGAAGGACCAGAUCUCU [pwkr ssNG2 2FMN 1F5s.2] (Eterna round: R96, puzzle: Same State NG 2) | 115 | 72.4 | 127 |  |  |  |
| UUGAAGAAUAUAGGAUAUUGAAUACAUAUGUUUAACAUGAGGAUCACCCAUGUGGGUUGCGGUAUCGAGAAGGAUAAAUAAAAG [Mat - Same State NG 2 - JL mod - D14] (Eterna round: R96, puzzle: Same State NG 2) | 203 | 162 | 181 |  |  |  |
| UUGAAGAAUUAAGGAUAUCGAGUCGUCUAAUUAAACAUGAGGAUCACCCAUGUGGGUUGCGGUAUCGAGAAGGUAAAUUACUAG [JL JR Sub099 mod 3] (Eterna round: R96, puzzle: Same State NG 2) | 25.2 | 22.8 | 37 |  |  |  |
| UUGAAGAAUUAAGGAUAUUGAGUACAUAUGUAAAACAUGAGGAUCACCCAUGUGGGUUGCGGUAUCGAGAAGGUAAAAUAAUAG [Mat - same State NG 2 - JL mod - D71] (Eterna round: R96, puzzle: Same State NG 2) | 74.5 | 79.6 | 81.6 |  |  |  |
| UUGAGAAAUUAAGGAUAUUGAGUACAUAUGUUUAACAUGAGGAUCACCCAUGUGGGUUGCGGUAUCGAGAAGGUAAAUUACUAG [Mat - same State NG 2 - JL mod - D72] (Eterna round: R96, puzzle: Same State NG 2) | 138 | 64.7 | 112 |  |  |  |
| UUGCGCUGUCGAGAGGAUAUGCGGUGUUGGACAUGAGGAUCACCCAUGUUAGCGAUAGCUUUACGGUAGAAGGCUCUUCAGCUGC [salish99_ss2_r3_097] (puzzle: Same State 2) |  |  |  |  | 99 |  |
| UUGCGGGCUUGAGGAUAUUGAGUACAUAUGUUUAACAUGAGGAUCACCCAUGUGGGUUGCGGUAUCGAGAAGGUAACUUCCUUC [salish99_SSNG2_r04_810] (Eterna round: R96, puzzle: Same State NG 2) | 190 | 146 | 157 |  |  |  |
| UUGGUACAUGAGGAUCACCCAUGUGGGUCGGUCGCAGGAUAUGCCCGUGGGCGCUUGCGGGCAGAAGGGUGCCGUA [Same State1-X] (Eterna round: R96, puzzle: Same State 1) | 173 | 386 | 1000 |  |  |  |
| UUGUUUCGUCAUUAACAUGAGGAUCACCCAUGUAAAGGAGCAGAGGAUAUGCAUGUUUGAUUGUAGCAGAAGGCUGAUUGUUGU [JR_SSNG3_Sub034] (Eterna round: R96, puzzle: Same State NG 3) | 32.6 | 27.9 | 31.9 |  |  |  |
| UUGUUUCGUCAUUAACAUGAGGAUCACCCAUGUAUUGACCCAAAGGAUAUAUAUGUUUGUUUGUAAUAGAAGGUUGAUUGUUGU [JR_SSNG3_Sub091] (Eterna round: R96, puzzle: Same State NG 3) | 19.9 | 16.8 | 20.6 |  |  |  |
| UUUAGAUUCAGAGGAUAUUGAUGUUGUAUUUUACAAGAAGGCUGAUUGGUUUGAAAUGUUAUUAAACAUGAGGAUCACCCAUGU [JR_SSNG1_Sub012] (Eterna round: R96, puzzle: Same State NG 1) | 31.7 | 32.3 | 44.5 |  |  |  |
| UUUAGUUGCGCGCAGGAUAUGUAUUAAUAUACAUGAGGAUCACCCAUGUGAGACCAAAUAGGUCUACAGAAGGGCGAAUCGCGAC [Laonerce - 29] (Eterna round: R96, puzzle: Same State 2) | 42.6 | 182 | 354 |  |  |  |
| UUUAGUUGCGCGCAGGAUAUGUAUUAAUAUACAUGAGGAUCACCCAUGUGAGACCAAAUAGGUCUACAGAAGGGCGAAUCGCGAC [Laonerce - 29] (puzzle: Same State 2) |  |  |  | 29.4 | 234 | 715 |
| UUUAGUUGCGGGCAGGAUAUGUAUUAAAGUACAUGAGGAUCACCCAUGUGCGGGUAUAACACCCGACAGAAGGGCCAAUCGCGAC [Laonerce - 1] (puzzle: Same State 2) |  |  |  | 17.7 | 64.3 | 115 |
| UUUAUACAUGAGGAUCACCCAUGUCAAUGUAGUCGAGGAUAUGGGCAGCCGUGAGGCGUACUAGAAGGCGAAGAGG [JL-ss1-3.09 ViennaUCT mod] (puzzle: Same State 1) |  |  |  |  | 117 |  |
| UUUUUAUAACAUGAGGAUCACCCAUGUGCGCGCACAAGGUUGUUGCUCGUCUUAUUUUUUUUUUUUUUUUUUUUUUU [viviankchen2] (puzzle: Sensor for hsa-mir-208a version 2) |  |  |  | 33.2 | 220 | 44.1 |
